Positions count from the first letter of the chain named.
Key:
Assay in all cases: EMSA
[1] = target: T1, BfmR R212A R212A (Pseudomonas aeruginosa PAO1) (UniProt Q9HWS7)
T1 sequence: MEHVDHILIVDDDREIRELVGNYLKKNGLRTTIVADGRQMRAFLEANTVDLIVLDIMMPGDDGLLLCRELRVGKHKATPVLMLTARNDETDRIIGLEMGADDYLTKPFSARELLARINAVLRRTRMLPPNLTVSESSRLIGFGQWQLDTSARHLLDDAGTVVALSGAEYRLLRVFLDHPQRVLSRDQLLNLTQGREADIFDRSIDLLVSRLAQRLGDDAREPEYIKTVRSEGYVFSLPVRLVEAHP

[2] = target: T2, BfmR R185A R185A (Pseudomonas aeruginosa PAO1) (UniProt Q9HWS7)
T2 sequence: T1 sequence with R185A, A212R

[3] = target: T3, BfmR S209A S209A (Pseudomonas aeruginosa PAO1) (UniProt Q9HWS7)
T3 sequence: T1 sequence with S209A, A212R

[4] = target: T4, BfmR R210A R210A (Pseudomonas aeruginosa PAO1) (UniProt Q9HWS7)
T4 sequence: T1 sequence with R210A, A212R

[5] = target: T5, BfmR R202A R202A (Pseudomonas aeruginosa PAO1) (UniProt Q9HWS7)
T5 sequence: T1 sequence with R202A, A212R

[6] = target: T6, BfmR T227A T227A (Pseudomonas aeruginosa PAO1) (UniProt Q9HWS7)
T6 sequence: T1 sequence with A212R, T227A

[7] = target: T7, BfmR (Pseudomonas aeruginosa PAO1) (UniProt Q9HWS7)
T7 sequence: T1 sequence with A212R

[8] = target: T8, BfmR D205A D205A (Pseudomonas aeruginosa PAO1) (UniProt Q9HWS7)
T8 sequence: T1 sequence with D205A, A212R

CATCGGATTCCTGCGAATACTACTGATAACGATAATCTCTATCATTTACTCCATTTTTACATTTACATACACTTGCCCCGCCGCGAATTCCTACGCCGGTTTCCCACATAAACAAGAAACGC (double strand) [PfpvB]
binding [1]: binds more weakly | binding [2]: binds more weakly | binding [3]: binds more weakly | binding [4]: binds more weakly | binding [5]: binds more weakly | binding [6]: binds more weakly | binding [7]: binds | binding [8]: binds more weakly
